Experiment [1] deals with human PD-L1 protein (human, UniProt Q9NZQ7 19-238). In words: ELISA, protein coated at 1 µg/mL. The procedure: (§1) The plate was decanted and washed once; assay diluent was added at 200 μL/well. After a 1-hour incubation at room temperature, the plate was washed with PBST one time. […] These samples were added into the plate 50 μL/well. The plate was incubated 1 hour at room temperature and then washed three times with PBST. Goat anti-human IgG-H+L HRP-conjugated at 1:100,000 dilution or goat anti-mouse IgG (H+L) secondary antibody, HRP, at 1:50,000 dilution was added to the plate at 100 μL/well. The plate was incubated 1 hour at room temperature followed by washing with PBST four times. The TMB substrate solution was added 100 μL/well. The color was permitted to develop for 15 minutes and then 100 μL/well 2N H₂SO₄ was added to terminate the reaction. Absorbance at 450 nm and 620 nm was determined by a Tecan F200 Pro reader.
In general terms: In an ELISA, binding on a coated surface is turned into a signal by an enzyme label.

In experiment [2] the target is T1, human LAG-3 protein (human, UniProt P18627 23-450).
T1 sequence (looked up): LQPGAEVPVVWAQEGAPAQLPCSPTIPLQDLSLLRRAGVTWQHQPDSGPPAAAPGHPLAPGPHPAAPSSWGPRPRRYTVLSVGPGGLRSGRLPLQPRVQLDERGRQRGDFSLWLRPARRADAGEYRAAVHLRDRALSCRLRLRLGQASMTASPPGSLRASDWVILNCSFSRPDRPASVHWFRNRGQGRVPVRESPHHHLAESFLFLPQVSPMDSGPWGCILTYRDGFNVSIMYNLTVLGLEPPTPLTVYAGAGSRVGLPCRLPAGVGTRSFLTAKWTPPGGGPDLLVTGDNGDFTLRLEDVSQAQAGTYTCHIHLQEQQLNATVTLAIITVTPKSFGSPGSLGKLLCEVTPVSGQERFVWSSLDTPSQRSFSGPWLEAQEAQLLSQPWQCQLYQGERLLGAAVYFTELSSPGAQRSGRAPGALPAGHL
Put plainly: ELISA, protein coated at 1 µg/mL. The procedure: as §1

For experiment [3], the target named is T2, human B7-H4 protein (human, UniProt Q7Z7D3 29-258, limits assumed).
T2 sequence (looked up): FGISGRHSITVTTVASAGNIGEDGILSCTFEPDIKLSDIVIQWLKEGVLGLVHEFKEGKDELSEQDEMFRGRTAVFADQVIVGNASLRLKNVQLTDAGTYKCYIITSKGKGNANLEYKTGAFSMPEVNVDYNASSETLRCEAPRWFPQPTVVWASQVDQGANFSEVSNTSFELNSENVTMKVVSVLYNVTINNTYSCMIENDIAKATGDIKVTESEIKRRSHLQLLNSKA
In words: ELISA, protein coated at 1 µg/mL. The procedure: as §1

In experiment [4] the target is T3, human TIGIT protein (human, UniProt Q495A1 22-141).
T3 sequence (looked up): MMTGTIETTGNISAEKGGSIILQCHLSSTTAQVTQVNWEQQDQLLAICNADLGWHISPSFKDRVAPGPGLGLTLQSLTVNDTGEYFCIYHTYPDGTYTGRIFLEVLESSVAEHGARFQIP
Put plainly: ELISA, protein coated at 1 µg/mL. The procedure:
as §1

Experiment [5] has as its target human CD47 protein (human, UniProt Q08722 19-139). In words: ELISA, protein coated at 1 µg/mL. The procedure:
as §1

Experiment [6] has as its target human PD-1 protein (human, UniProt Q15116 25-167). In words: ELISA, protein coated at 1 µg/mL. The procedure: as §1
Experiment [7] deals with T4, rat CD137 protein (rat, UniProt Q4W8J3 24-189).
T4 construct: Coated on ELISA plates; also called Rodent CD137
T4 sequence: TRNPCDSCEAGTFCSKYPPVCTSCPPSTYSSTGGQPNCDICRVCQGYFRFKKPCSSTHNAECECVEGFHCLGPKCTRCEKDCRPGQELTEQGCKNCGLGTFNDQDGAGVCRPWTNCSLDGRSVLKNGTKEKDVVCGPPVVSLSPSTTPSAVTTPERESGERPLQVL
Put plainly: ELISA, protein coated at 1 µg/mL. The procedure: as §1

Experiment [8] concerns the target T5, human CD27 on CHO cells (human, UniProt P26842 20-260).
T5 construct: whole, on cells
Put plainly: flow cytometry on CHO cells over-expressing the target. The procedure:
(§2) The cells were resuspended in ice cold assay buffer at 2*10\hat{ }6/mL and transferred to 96-well V-bottom plate with 100 μL/well. […] The plate was incubated in the dark for 2 hours at 4° C. The cells were washed 3 times by centrifugation at 1000 g for 3 min and resuspended in 100 μL ice cold assay buffer containing goat F(ab′)₂ anti-human IgG-Fc (PE) or PE goat anti-mouse IgG antibody. The plate was incubated in the dark for another 1 hour at 4° C. The cells were washed 2 times by centrifugation at 1000 g for 3 min and resuspended in ice cold assay buffer containing 2% PFA and analyzed on the flow cytometer immediately.

Experiment [9] concerns the target T6, human B7-H3 on CHO cells (human, UniProt Q5ZPR3 29-534).
T6 construct: whole, on cells
T6 sequence (looked up): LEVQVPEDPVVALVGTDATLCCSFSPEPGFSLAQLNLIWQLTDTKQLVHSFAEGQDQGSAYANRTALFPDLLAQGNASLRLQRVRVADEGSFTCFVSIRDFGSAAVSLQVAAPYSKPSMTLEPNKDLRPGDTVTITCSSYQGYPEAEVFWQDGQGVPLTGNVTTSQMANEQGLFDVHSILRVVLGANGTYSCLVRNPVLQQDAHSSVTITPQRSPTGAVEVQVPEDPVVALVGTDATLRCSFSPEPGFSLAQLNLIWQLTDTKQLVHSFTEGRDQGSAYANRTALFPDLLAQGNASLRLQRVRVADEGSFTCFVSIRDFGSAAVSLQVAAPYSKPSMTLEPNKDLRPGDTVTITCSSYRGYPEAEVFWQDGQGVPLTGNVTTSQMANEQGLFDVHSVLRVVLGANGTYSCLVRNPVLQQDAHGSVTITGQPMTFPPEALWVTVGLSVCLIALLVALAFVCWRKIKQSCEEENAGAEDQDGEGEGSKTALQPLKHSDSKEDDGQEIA
Described as above. The procedure:
as §2

Sequence of human PD-1 protein (Q15116 25-167 limits assumed): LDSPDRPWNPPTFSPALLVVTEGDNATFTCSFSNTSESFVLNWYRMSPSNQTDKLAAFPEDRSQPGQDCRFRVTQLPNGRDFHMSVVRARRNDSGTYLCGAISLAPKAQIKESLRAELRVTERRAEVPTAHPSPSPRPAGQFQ
Sequence of human PD-L1 protein (Q9NZQ7 19-238 limits assumed): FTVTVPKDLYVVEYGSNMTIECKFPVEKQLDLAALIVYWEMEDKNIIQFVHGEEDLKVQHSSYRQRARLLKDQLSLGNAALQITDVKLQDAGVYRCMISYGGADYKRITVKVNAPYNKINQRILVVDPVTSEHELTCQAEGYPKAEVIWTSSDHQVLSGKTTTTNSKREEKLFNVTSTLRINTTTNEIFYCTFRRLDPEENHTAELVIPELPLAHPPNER
T5 sequence (P26842 20-260): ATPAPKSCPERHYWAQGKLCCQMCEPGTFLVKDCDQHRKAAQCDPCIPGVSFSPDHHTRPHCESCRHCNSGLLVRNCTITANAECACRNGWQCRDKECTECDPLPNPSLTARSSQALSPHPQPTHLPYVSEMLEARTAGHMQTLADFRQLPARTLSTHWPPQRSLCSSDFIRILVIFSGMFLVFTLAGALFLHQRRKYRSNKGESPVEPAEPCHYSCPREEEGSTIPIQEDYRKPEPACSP
Sequence of human CD47 protein (Q08722 19-139 limits assumed): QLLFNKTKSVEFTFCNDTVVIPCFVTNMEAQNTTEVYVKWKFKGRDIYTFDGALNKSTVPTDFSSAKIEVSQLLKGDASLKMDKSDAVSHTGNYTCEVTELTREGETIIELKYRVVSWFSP

B1: Clone 3712-IgG1v (IgG1v/kappa) (antibody)
heavy: QVQLVQSGAEVKKPGASVKVSCKASGYTFAGFEMHWVRQAPGQGLEWMGAIDPKTGGTDYNQKFKDRVTMTRDTSISTAYMELSRLRSDDTAVYYCARDLGYFDVWGQGTLVTVSSASTKGPSVFPLAPSSKSTSGGTAALGCLVKDYFPEPVTVSWNSGALTSGVHTFPAVLQSSGLYSLSSVVTVPSSSLGTQTYICNVNHKPSNTKVDKKVEPKSCDKTHTCPPCPAPELLGPSVFLFPPKPKDTLMISRTPEVTCVVVDVEHEDPEVKFNWYVDGVEVHNAKTKPREEQYNSTYRVVSVLTVLHQDWLNGKEYKCKVSNKALPAPIEKTISKAKGQPREPQVYTLPPSREEMTKNQVSLTCLVKGFYPSDIAVEWESNGQPENNYKTTPPVLDSDGSFFLYSKLTVDKSRWQQGNVFSCSVMHEALHNHYTQKSLSLSPGK
light: DIQMTQSPSSLSASVGDRVTITCRASQDIRSNLNWYQQKPGGAVKLLIYYTSRLHSGVPSRFSGSGSGTDYTLTISSLQPEDFATYFCQQSEKLPRTFGGGTKVEIRRTVAAPSVFIFPPSDEQLKSGTASVVCLLNNFYPREAKVQWKVDNALQSGNSQESVTEQDSKDSTYSLSSTLTLSKADYEKHKVYACEVTHQGLSSPVTKSFNRGEC
notes: copies: 2 + 2
Consider B1, for which the binding result in experiment [1] is “no binding (tested: 10 µg/mL and 1 µg/mL)”; in [2], “no binding (tested: 10 µg/mL and 1 µg/mL)”; in [3], “no binding (tested: 10 µg/mL and 1 µg/mL)”; in experiment [4], “no binding (tested: 10 µg/mL and 1 µg/mL)”; in [5], “no binding (tested: 10 µg/mL and 1 µg/mL)”; in experiment [6], “no binding (tested: 10 µg/mL and 1 µg/mL)”. Moreover, the binding result in experiment [7] is “no binding (tested: 10 µg/mL and 1 µg/mL)”; in experiment [8], “no binding”; in experiment [9] it was “no binding”.

The record behind these values is patent US20210246218A1 (LYVGEN BIOPHARMA SUZHOU, published 2021).
